Measurements reported in patent US5674842A, “Growth inhibitory peptide” (Health Research, Incorporated, priority 1994, dated 1997).

How the values were obtained:
[1] = system: estrogen-stimulated growth of mouse uterus; conditions: full-length transformed AFP molecule, see references cited; cited from earlier work
[2] = Retention of inhibitory activity on storage; assay type: physicochemical; conditions: transformed human AFP preparation

B1: full-length transformed AFP molecule: full-length alpha-fetoprotein transformed by incubation with estradiol to an inhibitor of estrogen-stimulated growth (protein, UniProt P02771 1-609, looked up)
chain: MKWVESIFLIFLLNFTESRTLHRNEYGIASILDSYQCTAEISLADLATIFFAQFVQEATYKEVSKMVKDALTAIEKPTGDEQSSGCLENQLPAFLEELCHEKEILEKYGHSDCCSQSEEGRHNCFLAHKKPTPASIPLFQVPEPVTSCEAYEEDRETFMNKFIYEIARRHPFLYAPTILLWAARYDKIIPSCCKAENAVECFQTKAATVTKELRESSLLNQHACAVMKNFGTRTFQAITVTKLSQKFTKVNFTEIQKLVLDVAHVHEHCCRGDVLDCLQDGEKIMSYICSQQDTLSNKITECCKLTTLERGQCIIHAENDEKPEGLSPNLNRFLGDRDFNQFSSGEKNIFLASFVHEYSRRHPQLAVSVILRVAKGYQELLEKCFQTENPLECQDKGEEELQKYIQESQALAKRSCGLFQKLGEYYLQNAFLVAYTKKAPQLTSSELMAITRKMAATAATCCQLSEDKLLACGEGAADIIIGHLCIRHEMTPVNPGVGQCCTSSYANRRPCFSSLVVDETYVPPAFSDDKFIFHKDLCQAQGVALQTMKQEFLINLVKQKPQITEEQLEAVIADFSGLLEKCCQGQEQEVCFAEEGQKLISKTRAALGV
modifications: full-length estradiol-transformed
inhibition of estrogen-stimulated growth [1]: 20-40%
time activity is retained [2]: one
